Test results reported in the supplement of paper PMC10724198.
± gives the standard deviation of the averaged measurements.

Tests used:
Test in all cases: protein stability index of tFT-peptide fusion (C-terminal peptide) (PSI (0-1 scale)); higher = more stable (slower turnover)
Saccharomyces cerevisiae [1] = details: temperature: 30 C
Protocol: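 MPS profiling in S. cerevisiae of the yeast C-terminome library: the last 12 aa of each annotated ORF are fused to the C-terminus of a sfGFP-mCherry timer, after a GGGS linker. Cells are FACS-sorted into 8 mCherry/sfGFP bins and deep-sequenced. PSI runs from 0 (unstable) to 1 (stable); wild type and das1Δ backgrounds, two technical replicates each.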

Saccharomyces cerevisiae [2] = test system: Saccharomyces cerevisiae
Protocol: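 MPS profiling in S. cerevisiae of the tFT-X12 degron library: putative degron peptides plus stable controls, 12 aa, fused to the C-terminus of a sfGFP-mCherry timer. Cells are FACS-sorted into 8 mCherry/sfGFP bins and deep-sequenced. PSI runs from 0 (unstable) to 1 (stable). Backgrounds are wild type, das1Δ and doa10Δ at 30 °C, and wild type, das1Δ, cdc34-1 and cdc53-1 at 37 °C; 2-3 technical replicates each.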

Saccharomyces cerevisiae [3] = details: genetic background: wild type; temperature: 30 C
[4] = genetic background: das1 deletion
[5] = genetic background: cdc34-1, temperature: 37 C
[6] = genetic background: cdc53-1, temperature: 37 C
[7] = genetic background: das1 deletion, temperature: 30 C
[8] = genetic background: das1 deletion, temperature: 37 C
[9] = genetic background: doa10 deletion, temperature: 30 C
[10] = genetic background: wild type, temperature: 30 C
[11] = genetic background: wild type, temperature: 37 C

| Sequence | protein stability index (Saccharomyces cerevisiae [1]; [4]) | protein stability index (Saccharomyces cerevisiae [1]; genetic background: wild type) | protein stability index (Saccharomyces cerevisiae [2]; [5]) | protein stability index (Saccharomyces cerevisiae [2]; [6]) | protein stability index (Saccharomyces cerevisiae [2]; [7]) | protein stability index (Saccharomyces cerevisiae [2]; [8]) | protein stability index (Saccharomyces cerevisiae [2]; [9]) | protein stability index (Saccharomyces cerevisiae [2]; [10]) | protein stability index (Saccharomyces cerevisiae [2]; [11]) | protein stability index (Saccharomyces cerevisiae [3]) |
| --- | --- | --- | --- | --- | --- | --- | --- | --- | --- | --- |
| AAEAKEHMQEAN [TIF34 C-terminal 12 aa] | 0.732 ± 0.062 | 0.69 ± 0.059 | – | – | – | – | – | – | – | – |
| AATAKGKGKKKK [RSM27 C-terminal 12 aa] | 0.6993 ± 0.005 | 0.64475 ± 0.00021 | – | – | – | – | – | – | – | – |
| ACELLFENNIDM [PHO81 C-terminal 12 aa] | 0.695 ± 0.015 | 0.7517 ± 0.0037 | – | – | – | – | – | – | – | – |
| ACIFNVATASIP [YGR270C-A C-terminal 12 aa] | 0.719 ± 0.036 | 0.692 ± 0.03 | – | – | – | – | – | – | – | – |
| AFGNGFNSSIRW [NRP1 C-terminal 12 aa] | 0.71 ± 0.012 | 0.68 ± 0.0089 | – | – | – | – | – | – | – | – |
| AFKGHDNSDDKA [RIB2 C-terminal 12 aa] | 0.706 ± 0.017 | 0.666 ± 0.025 | – | – | – | – | – | – | – | – |
| AFKRKKQELGVN [QDR2 C-terminal 12 aa] | 0.671 ± 0.013 | 0.697 ± 0.089 | – | – | – | – | – | – | – | – |
| AFSSNDLLTVHL [BRE1 C-terminal 12 aa] | 0.698 ± 0.036 | 0.673 ± 0.011 | – | – | – | – | – | – | – | – |
| AFTTYRAFVEPN [PMI40 C-terminal 12 aa] | 0.72 ± 0.044 | 0.677 ± 0.0095 | – | – | – | – | – | – | – | – |
| AGSRRLDFRFYH [YOL162W C-terminal 12 aa] | 0.678 ± 0.064 | 0.6607 ± 0.0057 | – | – | – | – | – | – | – | – |
| YFWWLWMSFWVG | – | – | 0.4935 ± 0.0028 | 0.53 ± 0.011 | 0.43 ± 0.023 | 0.59 ± 0.066 | 0.419 ± 0.022 | 0.403 ± 0.015 | 0.539 ± 0.013 | 0.4702 ± 0.0044 |
| YGWGFLFILTLM | – | – | 0.15 ± 0.032 | 0.153 ± 0.03 | 0.262 ± 0.038 | 0.317 ± 0.0042 | 0.14 ± 0.024 | 0.101 ± 0.018 | 0.151 ± 0.016 | 0.182 ± 0.01 |
| YHGVYLARVLQA | – | – | 0.639 ± 0.0084 | 0.677 ± 0.021 | 0.604 ± 0.011 | 0.69 ± 0.015 | 0.243 ± 0.011 | 0.286 ± 0.024 | 0.501 ± 0.029 | 0.45 ± 0.041 |
| YIFLLRFFFFFS | – | – | 0.367 ± 0.014 | 0.435 ± 0.0084 | 0.333 ± 0.042 | 0.515 ± 0.03 | 0.299 ± 0.011 | 0.304 ± 0.044 | 0.435 ± 0.022 | 0.358 ± 0.028 |
| YILIKEVLYAVC | – | – | 0.169 ± 0.0061 | 0.171 ± 0.0086 | 0.182 ± 0.028 | 0.281 ± 0.0066 | 0.128 ± 0.023 | 0.17 ± 0.024 | 0.236 ± 0.0088 | 0.274 ± 0.018 |
| YIRINNIYWKKS | – | – | 0.58 ± 0.016 | 0.755 ± 0.024 | 0.669 ± 0.023 | 0.722 ± 0.012 | 0.182 ± 0.0071 | 0.227 ± 0.034 | 0.536 ± 0.032 | 0.399 ± 0.029 |

| Sequence | protein stability index (Saccharomyces cerevisiae [1]; [4]) | protein stability index (Saccharomyces cerevisiae [1]; genetic background: wild type) | protein stability index (Saccharomyces cerevisiae [2]; [5]) | protein stability index (Saccharomyces cerevisiae [2]; [6]) | protein stability index (Saccharomyces cerevisiae [2]; [7]) | protein stability index (Saccharomyces cerevisiae [2]; [8]) | protein stability index (Saccharomyces cerevisiae [2]; [9]) | protein stability index (Saccharomyces cerevisiae [2]; [10]) | protein stability index (Saccharomyces cerevisiae [2]; [11]) | protein stability index (Saccharomyces cerevisiae [3]) |
| --- | --- | --- | --- | --- | --- | --- | --- | --- | --- | --- |
| YLFPHVRPKFPG | – | – | 0.693 ± 0.042 | 0.747 ± 0.014 | 0.658 ± 0.019 | 0.7316 ± 0.0071 | 0.667 ± 0.0085 | 0.664 ± 0.016 | 0.721 ± 0.015 | 0.488 ± 0.091 |
| YLVSFVAFLRLF | – | – | 0.336 ± 0.02 | 0.446 ± 0.013 | 0.422 ± 0.025 | 0.5418 ± 0.0026 | 0.0967 ± 0.012 | 0.0919 ± 0.018 | 0.1 ± 0.019 | 0.143 ± 0.19 |
| YMNLYKNVISVT | – | – | 0.473 ± 0.044 | 0.47 ± 0.054 | 0.378 ± 0.024 | 0.522 ± 0.0072 | 0.316 ± 0.021 | 0.353 ± 0.024 | 0.457 ± 0.0095 | 0.408 ± 0.057 |
| YMVESVWVLLGT | – | – | 0.573 ± 0.029 | 0.5755 ± 0.0052 | 0.431 ± 0.032 | 0.582 ± 0.0083 | 0.381 ± 0.014 | 0.421 ± 0.042 | 0.564 ± 0.0079 | 0.49 ± 0.016 |
| YPFIPLIVCGFF | – | – | 0.401 ± 0.028 | 0.41 ± 0.0085 | 0.344 ± 0.024 | 0.4747 ± 0.00094 | 0.395 ± 0.019 | 0.338 ± 0.018 | 0.448 ± 0.01 | 0.404 ± 0.02 |
| YPVGAAFIRARA | – | – | 0.45 ± 0.016 | 0.501 ± 0.021 | 0.361 ± 0.036 | 0.5378 ± 0.0026 | 0.326 ± 0.0087 | 0.377 ± 0.026 | 0.5174 ± 0.0047 | 0.491 ± 0.011 |
| YQHSRSGRNKII | – | – | 0.591 ± 0.12 | 0.724 ± 0.033 | 0.652 ± 0.028 | 0.716 ± 0.021 | 0.109 ± 0.0063 | 0.117 ± 0.034 | 0.122 ± 0.035 | 0.235 ± 0.012 |
| YSRFALRPQLLV | – | – | 0.553 ± 0.051 | 0.634 ± 0.013 | 0.512 ± 0.025 | 0.62 ± 0.029 | 0.172 ± 0.0042 | 0.184 ± 0.024 | 0.327 ± 0.0056 | 0.285 ± 0.011 |
| YSVNSLFCKVFG | – | – | 0.469 ± 0.012 | 0.4777 ± 0.00052 | 0.348 ± 0.031 | 0.541 ± 0.0043 | 0.3135 ± 0.0031 | 0.361 ± 0.022 | 0.5054 ± 0.002 | 0.417 ± 0.032 |
| YTCFLFLLRCMT | – | – | 0.303 ± 0.048 | 0.3521 ± 0.00065 | 0.261 ± 0.044 | 0.415 ± 0.0047 | 0.1757 ± 0.00026 | 0.198 ± 0.024 | 0.294 ± 0.002 | 0.292 ± 0.003 |
| YVDSGLTLIHLA | – | – | 0.606 ± 0.0079 | 0.723 ± 0.036 | 0.662 ± 0.018 | 0.72 ± 0.013 | 0.17091 ± 8.6e-05 | 0.181 ± 0.023 | 0.334 ± 0.011 | 0.297 ± 0.021 |
| YVQTKKTRYVLV | – | – | 0.483 ± 0.027 | 0.506 ± 0.027 | 0.383 ± 0.025 | 0.543 ± 0.011 | 0.32 ± 0.0047 | 0.343 ± 0.018 | 0.5038 ± 0.0023 | 0.454 ± 0.055 |
| YVSIWSPILWLA | – | – | 0.1694 ± 0.0014 | 0.262 ± 0.012 | 0.293 ± 0.028 | 0.453 ± 0.0083 | 0.0697 ± 0.007 | 0.0628 ± 0.017 | 0.0657 ± 0.016 | 0.117 ± 0.024 |
| YYFCMYFKVTLC | – | – | 0.0445 ± 0.006 | 0.15 ± 0.064 | 0.15 ± 0.028 | 0.285 ± 0.0044 | 0.0456 ± 0.019 | 0.043 ± 0.0087 | 0.0707 ± 0.042 | 0.0781 ± 0.03 |
| YYFFLTFLCYVF | – | – | 0.153 ± 0.024 | 0.216 ± 0.039 | 0.154 ± 0.023 | 0.255 ± 0.01 | 0.148 ± 0.019 | 0.112 ± 0.027 | 0.221 ± 0.011 | 0.207 ± 0.018 |
